{"source": "patent US20220204599A1", "about": "(PRESTIGE BIOPHARMA, published 2022)", "binders": {"B1": {"name": "cCMAb96 anti-CTHRC1 chimeric antibody (antibody, V domains shown)", "VH": "QVQLQQPGSELVRPGASVKLSCKASGYTFTSYWMHWVKQRPGQGLEWIGNIYPSSGTTNYDEKFKNKATLTVDTSSTTAYMHLSSLTSEDSAVYYCTTESYWGQGTTLTVSS", "VL": "DIVMTQSPSSLSASLGDTITITCHASQNINVWLSWYQQKPGNIPKLLIYKASNLHTGVPSRFSGSGSGTGFTLTISSLQPEDIATYYCQQGQSYPLTFGGGTKLEIK", "notes": "Detected with anti-human kappa light chain-HRP, so the light chain is kappa; also called chimeric 9E6"}, "B2": {"name": "hCMAb96 humanized anti-CTHRC1 antibody (antibody, V domains shown)", "VH": "QVQLVQSGAEVKKPGASVKVSCKASGYTFTSYWMHWVRQAPGQGLEWIGYIYPSSGTTNYNQKFQGRVTITADESTSTAYMELSPLRSEDTAVYYCTTESYWGQGTTVTVSS", "VL": "B1 VL with V3Q, S34A, N42K, I43A, T56S, G70D, G100Q, L104V", "notes": "Humanized IgG made by CDR grafting and expressed in HEK293F; also called SA2770; humanized 9E6"}, "B3": {"name": "cCMAb45 anti-CTHRC1 chimeric antibody (antibody, V domains shown)", "VH": "EVQLQQSGPELVKPGASVKISCKASGYSFTDYIMLWVKQSHGKSLEWIGNINPYYGSTSYNLKFKGKATLTVDKSSSTAYMQLNSLTSEDSAVYYCARSGYGYDESAMDYWGQGTSVTVSS", "VL": "DVLMTQTPLSLPVNIGDQASISCKSTKSLLNSDGFTYLDWYLQKPGQSPQLLIYLVSNRFSGVPDRFSGSGSGTDFTLKISRVEAEDLGVYYCFQSNYLPLTFGSGTKLEIK", "notes": "Detected with anti-human kappa light chain-HRP, so the light chain is kappa; also called chimeric 4H5"}, "B4": {"name": "hCMAb45 humanized anti-CTHRC1 antibody (antibody, V domains shown)", "VH": "QVQLVESGAEVKKPGASVKVSCKASGYSFTDYIILWVRQAPGQGLEWMGAINPYYGSTVYGQKFQGRLTITADGSMSTAYMELSSLRSEDTAVYYCARSGYGYDESAMDYWGQGTLVTVSS", "VL": "B3 VL with V2I, L3V, N14T, I15P, D17E, Q18P, K24R, T26S, L88V, S105Q", "notes": "Humanized IgG made by CDR grafting and expressed in HEK293F; also called SA2765; humanized 4H5"}}, "key": {"[1]": {"biological_target": "T1, collagen triple helix repeat containing-1 (CTHRC1) protein (Homo sapiens (Human), UniProt Q96CG8 31-243)", "T1 construct": "The coated protein may in fact have been CTHRC1-His or CTHRC1-Fc", "T1 sequence (Q96CG8 31-243 limits assumed)": "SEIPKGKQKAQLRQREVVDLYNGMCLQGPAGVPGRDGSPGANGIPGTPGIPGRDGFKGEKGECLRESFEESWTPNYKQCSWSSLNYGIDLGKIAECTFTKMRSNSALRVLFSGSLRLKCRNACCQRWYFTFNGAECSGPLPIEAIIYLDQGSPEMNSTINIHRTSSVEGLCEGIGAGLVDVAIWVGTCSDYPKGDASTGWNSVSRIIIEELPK", "test": "indirect ELISA, CTHRC1 coated at 5 µg/mL, anti-human Fc-HRP", "description": "The affinity of cCMAb45 and cCMAb96, which are anti-CTHRC1 chimeric antibodies, prepared in Example 1-3 to the CTHRC1 protein was verified. Indirect ELISA was performed to test the affinity of the antigens and antibodies.\n100 μL of CTHRC1 was dispensed at a concentration of 5 μg/mL onto an immuno-plate and coated at 4° C. overnight. The next day, the coated CTHRC1 solution was discarded and blocked for 2 hours. Thereafter, the cCMAb45 and cCMAb96 antibodies were treated at different concentrations and reacted at room temperature for 2 hours, and the antibodies were discarded to remove the unbound antibodies, and then the plate was washed. The OD value was measured using the anti-human Fc-HRP as a second antibody that recognizes human constant regions. In particular, the higher OD value indicates higher affinity between CTHRC1 and the antibodies."}, "CTHRC1-His": {"biological_target": "T2, CTHRC1-His (Homo sapiens (Human), UniProt Q96CG8 30-243)", "T2 construct": "also called antigen CTHRC1-His", "T2 sequence (Q96CG8 other isoform, or with tags, fused parts or gaps limits assumed)": "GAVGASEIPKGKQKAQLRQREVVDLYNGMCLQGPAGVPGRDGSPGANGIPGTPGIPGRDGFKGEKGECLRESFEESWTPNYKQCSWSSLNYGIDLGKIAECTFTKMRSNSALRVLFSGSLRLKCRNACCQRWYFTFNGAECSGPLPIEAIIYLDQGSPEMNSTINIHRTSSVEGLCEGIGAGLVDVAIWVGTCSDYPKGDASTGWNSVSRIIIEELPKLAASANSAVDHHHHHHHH", "test": "indirect ELISA, CTHRC1-His coated, re-measurement"}}, "note": "Substitutions are numbered along the chain they refer to.", "data": [{"binder": "B1", "values": [{"measurement": "Kd", "setting": "[1]", "result": 430, "unit": "pM"}]}, {"binder": "B2", "values": [{"measurement": "binding result", "setting": "CTHRC1-His", "result": "binds"}]}, {"binder": "B3", "values": [{"measurement": "Kd", "setting": "[1]", "result": 520, "unit": "pM"}]}, {"binder": "B4", "values": [{"measurement": "binding result", "setting": "CTHRC1-His", "result": "binds"}]}]}
